# From patent US20200095340A1
# Target: biotinylated human DLL3 protein expressed as a human IgG1 fusion protein (human) (UniProt Q9NYJ7)
# Experiment: Octet, biotinylated human DLL3-IgG1 fusion on streptavidin tips, single 50 nM, conditioned medium (relative KD)
# Sequence of biotinylated human DLL3 protein expressed as a human IgG1 fusion protein (human) (Q9NYJ7 27-492): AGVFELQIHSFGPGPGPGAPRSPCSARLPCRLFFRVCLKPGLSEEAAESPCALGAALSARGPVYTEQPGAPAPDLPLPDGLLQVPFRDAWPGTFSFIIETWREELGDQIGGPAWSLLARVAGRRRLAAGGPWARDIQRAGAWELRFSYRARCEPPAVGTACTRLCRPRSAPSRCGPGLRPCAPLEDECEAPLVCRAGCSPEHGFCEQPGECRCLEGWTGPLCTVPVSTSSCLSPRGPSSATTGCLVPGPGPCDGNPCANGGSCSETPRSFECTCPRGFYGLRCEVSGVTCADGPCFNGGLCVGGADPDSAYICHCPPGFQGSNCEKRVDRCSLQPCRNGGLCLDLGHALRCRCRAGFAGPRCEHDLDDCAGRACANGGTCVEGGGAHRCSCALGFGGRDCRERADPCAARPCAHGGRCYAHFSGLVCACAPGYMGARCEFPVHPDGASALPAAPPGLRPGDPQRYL
row,Kd,Binder
1,14 nM,"anti-DLL3 trispecific protein, DLL3 binder 1D02 (protein, part only; not given: CD3 binder and albumin binder, part only) chain, part: EVQLVESGGGLVQPGGSLTLSCVASGSTSSINAMAWYRRAPGKQRELVAGISSNGSKVYADSVKGRFTISRDNAKNSVYLQMNSLRAEDTAVYYCYYFRQVSGSSMRYWGQGTLVTVSSGGGGSGGGSGGGGSGGGSHHHHHH"
2,14 nM,"anti-DLL3 trispecific protein, DLL3 binder 2D02 (protein, part only; not given: anti-CD3 fragment and anti-albumin sdAb, part only) chain, part: EVQLVESGGGLVQPGGSLTLSCVASGSTSSINALGWYRRAPGKQRELVAGISSDGSLVYADSVKGRFTISRDNAKNSVYLQMNSLRAEDTAVYYCYYFRIVSGSSMRYWGQGTLVTVSSGGGGSGGGSGGGGSGGGSHHHHHH"
3,18 nM,"anti-DLL3 trispecific protein, DLL3 binder 2H08 (protein, part only; not given: anti-CD3 fragment and anti-albumin domain, part only) chain, part: EVQLVESGGGLVQPGGSLTLSCVASGSTSSINAMGWYRRAPGKQRELAAGISKDGSKVYADSAKGRFTISRDNAKNSVYLQMNSLRAEDTAVYYCYYFRTVSGSSSRYWGQGTLVTVSSGGGGSGGGSGGGGSGGGSHHHHHH"
4,17 nM,"anti-DLL3 trispecific protein, DLL3 binder 1H08 (protein, part only; not given: CD3 binder and albumin binder, part only) chain, part: EVQLVESGGGLVQPGGSLTLSCVASGSTFSINAMGWYRRAPGKQRELVAGISSDGSKVLADSVKGRFTISRDNAKNSVYLQMNSLRAEDTAVYYCYYFRLVSGSSMRYWGQGTLVTVSSGGGGSGGGSGGGGSGGGSHHHHHH"
5,14 nM,"anti-DLL3 trispecific protein, DLL3 binder 1E05 (protein, part only; not given: anti-CD3 fragment and anti-albumin domain, part only) chain, part: EVQLVESGGGLVQPGGSLTLSCVASGSTSVINAMAWYRRAPGKQRELAAGISSDGSKVYAKSAKGRFTISRDNAKNSVYLQMNSLRAEDTAVYYCYYFNTVSGSSMRYWGQGTLVTVSSGGGGSGGGSGGGGSGGGSHHHHHH"
6,17 nM,"anti-DLL3 trispecific protein, DLL3 binder 2E08 (protein, part only; not given: anti-CD3 fragment and anti-albumin sdAb, part only) chain, part: EVQLVESGGGLVQPGGSLTLSCVASGSRSSINAMGWYRRAPGKQRELVAGISADGSKVYADSVKGRFTISRDNAKNSVYLQMNSLRAEDTAVYYCYYFRTQSGSSMRYWGQGTLVTVSSGGGGSGGGSGGGGSGGGSHHHHHH"
7,14 nM,"anti-DLL3 trispecific protein, DLL3 binder 1G05 (protein, part only; not given: anti-CD3 fragment and anti-albumin sdAb, part only) chain, part: EVQLVESGGGLVQPGGSLTLSCVASGSTSSINAIGWYRRAPGKQRELVAGISSDGSKYYADSVKGRFTISRDNAKNSVYLQMNSLRAEDTAVYYCYYFRTVTGSSMRYWGQGTLVTVSSGGGGSGGGSGGGGSGGGSHHHHHH"
8,14 nM,"anti-DLL3 trispecific protein, DLL3 binder 1H06 (protein, part only; not given: anti-CD3 fragment and anti-albumin sdAb, part only) chain, part: EVQLVESGGGLVQPGGSLTLSCVASGTTSSINAMGWYRRAPGKQRELVAGISSDGSKVYVDSVKGRFTISRDNAKNSVYLQMNSLRAEDTAVYYCYYFRFLSGSSMRYWGQGTLVTVSSGGGGSGGGSGGGGSGGGSHHHHHH"
9,14 nM,"anti-DLL3 trispecific protein, DLL3 binder 3C011 (protein, part only; not given: anti-CD3 fragment and anti-albumin domain, part only) chain, part: EVQLVESGGGLVQPGGSLTLSCAASGSSVRFLSMAWYRQAPGKKRELVAGISAHGSTDYIDSVKGRFTISRDNAKNSVYLQMNSLRAEDTAVYYCYAYRWRTRYTYWGQGTLVTVSSGGGGSGGGSGGGGSGGGSHHHHHH"
10,16 nM,"anti-DLL3 trispecific protein, DLL3 binder 3D05 (protein, part only; not given: CD3 binder and albumin binder, part only) chain, part: EVQLVESGGGLVQPGGSLTLSCAASGSSVRFLSMAWYRQAPGKKRELVAGISADGSTDYIDSVKGRFTISRDNAKNSVYLQMNSLRAEDTAVYYCYAYRWTRRYTYWGQGTLVTVSSGGGGSGGGSGGGGSGGGSHHHHHH"
11,15 nM,"anti-DLL3 trispecific protein, DLL3 binder 3B06 (protein, part only; not given: anti-CD3 fragment and anti-albumin sdAb, part only) chain, part: EVQLVESGGGLVQPGGSLTLSCAASGKSVSFLSMAWYRQAPGKKRELVAGISKDGSTDYIDSVKGRFTISRDNAKNSVYLQMNSLRAEDTAVYYCYAYRWTTRYTYWGQGTLVTVSSGGGGSGGGSGGGGSGGGSHHHHHH"
12,18 nM,"anti-DLL3 trispecific protein, DLL3 binder 4G07 (protein, part only; not given: anti-CD3 fragment and anti-albumin domain, part only) chain, part: EVQLVESGGGLVQPGGSLTLSCAASGSSVSFLSVAWYRQAPGKKRELVAGISANGSTDYIDSVKGRFTISRDNAKNSVYLQMNSLRAEDTAVYYCYAYRWTNRYTYWGQGTLVTVSSGGGGSGGGSGGGGSGGGSHHHHHH"
13,16 nM,"anti-DLL3 trispecific protein, DLL3 binder 4H09 (protein, part only; not given: anti-CD3 and anti-albumin domains, part only) chain, part: EVQLVESGGGLVQPGGSLTLSCAASGSSVSKLSMAWYRQAPGKKRELVAGISADGSTDYRDSVKGRFTISRDNAKNSVYLQMNSLRAEDTAVYYCYAYRWTYRYTYWGQGTLVTVSSGGGGSGGGSGGGGSGGGSHHHHHH"
14,15 nM,"anti-DLL3 trispecific protein, DLL3 binder 4G02 (protein, part only; not given: CD3 binder and albumin binder, part only) chain, part: EVQLVESGGGLVQPGGSLTLSCAASGSSVKFLSMAWYRQAPGKKRELVAGISRDGSTDYIDSVKGRFTISRDNAKNSVYLQMNSLRAEDTAVYYCYAYRWTTRHTYWGQGTLVTVSSGGGGSGGGSGGGGSGGGSHHHHHH"
15,16 nM,"anti-DLL3 trispecific protein, DLL3 binder 4H07 (protein, part only; not given: anti-CD3 fragment and anti-albumin sdAb, part only) chain, part: EVQLVESGGGLVQPGGSLTLSCAASGRSVSFLSMAWYRQAPGKKRELVAGISANGSTDYIDSVKGRFTISRDNAKNSVYLQMNSLRAEDTAVYYCYAYRWSTRYTYWGQGTLVTVSSGGGGSGGGSGGGGSGGGSHHHHHH"
16,14 nM,"anti-DLL3 trispecific protein, DLL3 binder 3H09 (protein, part only; not given: anti-CD3 fragment and anti-albumin domain, part only) chain, part: EVQLVESGGGLVQPGGSLTLSCAASKSSVSFLSMAWYRQAPGKKRELVAGISADGSTDYIDSVKGRFTISRDNAKNSVYLQMNSLRAEDTAVYYCYAYRWTTRATYWGQGTLVTVSSGGGGSGGGSGGGGSGGGSHHHHHH"

row,Kd,Binder
1,14 nM,"anti-DLL3 trispecific protein, DLL3 binder 3F08 (protein, part only; not given: CD3 fragment and albumin sdAb, part only) chain, part: EVQLVESGGGLVQPGGSLTLSCAASGSRVSFLSMAWYRQAPGKKRELVAGISADGSTLYIDSVKGRFTISRDNAKNSVYLQMNSLRAEDTAVYYCYAYRWHTRYTYWGQGTLVTVSSGGGGSGGGSGGGGSGGGSHHHHHH"
2,15 nM,"anti-DLL3 trispecific protein, DLL3 binder 4F02 (protein, part only; not given: anti-CD3 fragment and anti-albumin domain, part only) chain, part: EVQLVESGGGLVQPGGSLTLSCAASGSTVSFLSMAWYRQAPGKKRELVAGISHDGSTDYIDSVKGRFTISRDNAKNSVYLQMNSLRAEDTAVYYCYAYRWTTRYTYWGQGTLVTVSSGGGGSGGGSGGGGSGGGSHHHHHH"
3,14 nM,"anti-DLL3 trispecific protein, DLL3 binder 3C01 (protein, part only; not given: CD3 binder and albumin binder, part only) chain, part: EVQLVESGGGLVQPGGSLTLSCAASGSSVRFLSMAWYRQAPGKKRELVAGISAHGSTDYIDSVKGRFTISRDNAKNSVYLQMNSLRAEDTAVYYCYAYRWSTRYTYWGQGTLVTVSSGGGGSGGGSGGGGSGGGSHHHHHH"
4,17 nM,"anti-DLL3 trispecific protein, DLL3 binder 3G011 (protein, part only; not given: anti-CD3 fragment and anti-albumin sdAb, part only) chain, part: EVQLVESGGGLVQPGGSLTLSCAASGSRVSFLSMAWYRQAPGKKRELVAGISADGSTGYIDSVKGRFTISRDNAKNSVYLQMNSLRAEDTAVYYCYAYRWATRYTYWGQGTLVTVSSGGGGSGGGSGGGGSGGGSHHHHHH"
5,17 nM,"anti-DLL3 trispecific protein, DLL3 binder 3D08 (protein, part only; not given: anti-CD3 fragment and anti-albumin sdAb, part only) chain, part: EVQLVESGGGLVQPGGSLTLSCAASGSSVRFLSMAWYRQAPGKKRELVAGISANGSTDYIDSVKGRFTISRDNAKNSVYLQMNSLRAEDTAVYYCYAYRWTNRYTYWGQGTLVTVSSGGGGSGGGSGGGGSGGGSHHHHHH"
6,20 nM,"anti-DLL3 trispecific protein, DLL3 binder 3G02 (protein, part only; not given: CD3 binder and albumin binder, part only) chain, part: EVQLVESGGGLVQPGGSLTLSCAASGSSVSFLSMAWYRQAPGKKRELVAGISADGRTDYIDSVKGRFTISRDNAKNSVYLQMNSLRAEDTAVYYCYAYRWRTRYTYWGQGTLVTVSSGGGGSGGGSGGGGSGGGSHHHHHH"
7,18 nM,"anti-DLL3 trispecific protein, DLL3 binder 4H06 (protein, part only; not given: anti-CD3 and anti-albumin domains, part only) chain, part: EVQLVESGGGLVQPGGSLTLSCAASGRSVSFLSMAWYRQAPGKKRELVAGISADGSTIYIDSVKGRFTISRDNAKNSVYLQMNSLRAEDTAVYYCYAYRWTTRYTYWGQGTLVTVSSGGGGSGGGSGGGGSGGGSHHHHHH"
8,16 nM,"anti-DLL3 trispecific protein, DLL3 binder 4B06 (protein, part only; not given: anti-CD3 fragment and anti-albumin domain, part only) chain, part: EVQLVESGGGLVQPGGSLTLSCAASGSRVSFLSMAWYRQAPGKKRELVAGISADGSTDYFDSVKGRFTISRDNAKNSVYLQMNSLRAEDTAVYYCYAYRWTRRYTYWGQGTLVTVSSGGGGSGGGSGGGGSGGGSHHHHHH"
9,14 nM,"anti-DLL3 trispecific protein, DLL3 binder 3D010 (protein, part only; not given: CD3 binder and albumin binder, part only) chain, part: EVQLVESGGGLVQPGGSLTLSCAASGSSKSFLSMAWYRQAPGKKRELVAGISADGSTSYIDSVKGRFTISRDNAKNSVYLQMNSLRAEDTAVYYCYAYRWTTRYTYWGQGTLVTVSSGGGGSGGGSGGGGSGGGSHHHHHH"
10,16 nM,"anti-DLL3 trispecific protein, DLL3 binder 3E01 (protein, part only; not given: anti-CD3 fragment and anti-albumin sdAb, part only) chain, part: EVQLVESGGGLVQPGGSLTLSCAASGSSVKFLSMAWYRQAPGKKRELVAGISADGSTMYIDSVKGRFTISRDNAKNSVYLQMNSLRAEDTAVYYCYAYRWHTRYTYWGQGTLVTVSSGGGGSGGGSGGGGSGGGSHHHHHH"
11,16 nM,"anti-DLL3 trispecific protein, DLL3 binder 3A01 (protein, part only; not given: anti-CD3 fragment and anti-albumin sdAb, part only) chain, part: EVQLVESGGGLVQPGGSLTLSCAASGSSVKFLSMAWYRQAPGKKRELVAGISADGSTDYIDSVKGRFTISRDNAKNSVYLQMNSLRAEDTAVYYCYAYRWTRRYTYWGQGTLVTVSSGGGGSGGGSGGGGSGGGSHHHHHH"
12,15 nM,"anti-DLL3 trispecific protein, DLL3 binder 3A05 (protein, part only; not given: anti-CD3 fragment and anti-albumin domain, part only) chain, part: EVQLVESGGGLVQPGGSLTLSCAASGSSVSFLSMAWYRQAPGKKRELVAGISEAGSTDYIDSVKGRFTISRDNAKNSVYLQMNSLRAEDTAVYYCYAYRWRTRYTYWGQGTLVTVSSGGGGSGGGSGGGGSGGGSHHHHHH"
13,16 nM,"anti-DLL3 trispecific protein, DLL3 binder 4C08 (protein, part only; not given: CD3 binder and albumin binder, part only) chain, part: EVQLVESGGGLVQPGGSLTLSCVASGSQVSFLSMAWYRQAPGKKRELVAGISADGSTDYFDSVKGRFTISRDNAKNSVYLQMNSLRAEDTAVYYCYAYRWTRRYTYWGQGTLVTVSSGGGGSGGGSGGGGSGGGSHHHHHH"
14,16 nM,"anti-DLL3 trispecific protein, DLL3 binder 3A06 (protein, part only; not given: anti-CD3 fragment and anti-albumin domain, part only) chain, part: EVQLVESGGGLVQPGGSLTLRCAASGSKVSFLSMAWYRQAPGKKRELVAGISADGSTDYVDSVKGRFTISRDNAKNSVYLQMNSLRAEDTAVYYCYAYRWTRRYTYWGQGTLVTVSSGGGGSGGGSGGGGSGGGSHHHHHH"
15,18 nM,"anti-DLL3 trispecific protein, DLL3 binder 4B05 (protein, part only; not given: anti-CD3 fragment and anti-albumin domain, part only) chain, part: EVQLVESGGGLVQPGGSLTLSCAASGSRVSFLSMAWYRQAPGKKRELVAGISADGHTDYIDSVKGRFTISRDNAKNSVYLQMNSLRAEDTAVYYCYAYRWTTRYTHWGQGTLVTVSSGGGGSGGGSGGGGSGGGSHHHHHH"
